{"source": "paper PMC8675452", "target": "biotinylated MPER peptide (MPERbiot) (HIV (strain not stated))", "experiment": "BLI"}
{"substance": "trispecific anti-HIV antibody (SAR441236)", "values": [{"measurement": "koff", "value": 0.00126, "unit": "s⁻¹"}]}
